In this test the target is tau RD containing the disease-associated P301S substitution fused to either CFP or YFP (human) (UniProt P10636). Put plainly: FRET or BRET; HEK293T tau biosensor cells with up to 200 nM freshly prepared, oligomeric or fibrillar Aβ, no tau seeds, no transfection reagent; FRET by flow cytometry after 48 h and after 2 weeks. (Bioluminescence resonance energy transfer reports proximity on the nanometre scale.)

One substance from publication PMC6800506 can be followed below.

Bounds are passed on as bounds.

The substance “tau RD containing the disease-associated P301S substitution fused to either CFP or YFP (from UniProt P10636-8 244-372) (domain or fragment)” gave an integrated FRET density (IFD) of under 10.
